Data on 1 protein can be found in publication PMC5485733, “An Amyloidogenic Sequence at the N-Terminus of the Androgen Receptor Impacts Polyglutamine Aggregation” (Biomolecules, 2017).

This data set concerns the molecule itself. Put plainly: SEC + other: mass spectrometry; HiLoad 16/60 Superdex 75, 20 mM sodium phosphate pH 6.5, 150 mM NaCl, with or without 2 mM DTT; dimer fraction decreased with DTT; fractions identified by mass spectrometry; monomer to covalent dimer.

B1: His-SUMO-peptide fusion protein (SUMO_SAPKELCKAVSVSM) (domain or fragment, human)
chain: SAPKELCKAVSVSM
notes: three amino acids Ser-Ala-Pro linker inserted between the SUMO tag and the peptide; The peptide is the C-terminus of the chain (stop codon after it); The dimer is covalent; Printed mass 15,819 (printed as kDa); source: E. coli Rosetta (DE3), purified (Ni-NTA agarose, SEC); not shown: His, N-terminal, kept; SUMO, N-terminal, kept
As for B1, the “stoichiometry N” value was found to be 2.

As a reminder, the stoichiometry N is a count of units in the complex or per binding partner.
